Results as given in patent US20040167319A1 (Genmab, published 2004).

Biological target: human CD20 (human) (UniProt P11836)
Experiment: dissociation of 125I-labelled F(ab)2 fragments from Ramos-EHRB cells, initial binding set at 100%

Chain of human CD20 (human) (P11836 whole entry, the tested form may be a part): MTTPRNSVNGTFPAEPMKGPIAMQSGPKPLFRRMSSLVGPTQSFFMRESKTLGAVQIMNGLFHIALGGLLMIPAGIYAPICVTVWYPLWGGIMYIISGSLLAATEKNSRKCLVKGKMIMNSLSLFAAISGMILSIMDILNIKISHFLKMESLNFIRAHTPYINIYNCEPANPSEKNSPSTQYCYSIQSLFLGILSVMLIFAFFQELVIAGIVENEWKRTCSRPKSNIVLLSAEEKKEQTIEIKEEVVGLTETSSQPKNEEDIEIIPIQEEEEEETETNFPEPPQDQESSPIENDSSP

- percent still bound at 90 min: 50%
Substance: F(ab′)2 fragment of rituximab
